Earlier results in paper PMC9949911.

Target: IL-18bp (Homo sapiens) (UniProt O95998)
Sequence (O95998 31-194): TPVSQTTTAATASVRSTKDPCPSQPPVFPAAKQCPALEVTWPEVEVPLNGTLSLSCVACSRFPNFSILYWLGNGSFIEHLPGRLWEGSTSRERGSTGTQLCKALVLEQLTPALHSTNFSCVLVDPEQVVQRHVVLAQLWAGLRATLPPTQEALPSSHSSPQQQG

Sequence of IL-18 (Q14116 37-193): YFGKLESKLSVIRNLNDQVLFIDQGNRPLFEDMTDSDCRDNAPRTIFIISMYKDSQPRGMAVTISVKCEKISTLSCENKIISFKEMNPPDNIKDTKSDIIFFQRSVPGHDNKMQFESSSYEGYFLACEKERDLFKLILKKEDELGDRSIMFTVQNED

Substance: IL-18 (from UniProt Q14116)
- Kd: 0.05 nM
